For orientation: Kd means a measure of binding affinity in units of concentration. Low readings indicate tighter binding, high ones weaker binding.

These results are taken from publication PMC7402034.

This experiment has as its target SARS-CoV-2 S protein trimer (with mutations R683A and R685A, His-tag) (SARS-CoV-2) (UniProt P0DTC2). The experiment can be described thus: ELISA.

The substance “Human DC-SIGN (Fc-tag) (from UniProt Q9NNX6) (Fc fusion)” had a Kd of 0.192 nM.
To “Human DC-SIGNR (Fc-tag) (from UniProt Q9H2X3) (Fc fusion)” belongs 0.986 nM.
Substance “Human MGL (Fc-tag) (from UniProt Q8IUN9) (Fc fusion)” registered a Kd of 0.312 nM. This Kd lies about 3.2-fold lower than the previous one.
